Source: US10927354B2, “D-type amino acid dehydrogenase” (Kureha Corporation, priority 2017, dated 2021)

B1: D-type amino acid dehydrogenase: D-type amino acid dehydrogenase derived from N. massiliense, amino acid sequence SEQ ID NO: 2, hexamer (protein)
chain: MSNVYNVAVVGYGNIGKYAVQAIDAAPDMQLAGVVRRASSAAKDTPPELVGRRVVHDIRDLEQVDVAILAAPTRTIPAYARDVLSLGIHTVDSYDIHGELANLRRELDDVSKKNDSVAIISAGWDPGTDSMIRGMLEFMAPGGLTYTNFGPGMSMGHSVAVKAIDGVKDALSLTIPLGTSIHRRMVYVELEAGADFETVKKAILADPYFVNDETHVTQVPNVQQLVNVGHGVSMERRGVSGATHNQLFTFEMRINNPALTSQVLVAAARATFKQQPGAYTMIEVPVIDYLPGDRDDIIRRLV
modifications: hexamer; Numidum massiliense

Legend:
[1] = system: D-type amino acid dehydrogenase derived from N. massiliense; assay: Kinetic analysis of D-type amino acid dehydrogenase; format: biochemical, Numidum massiliense; settings: meso-diaminopimelic acid as substrate, NADP^+ or NAD^+ as coenzyme; values for meso-diaminopimelic acid determined using NADP^+
Procedure: The absorbance was measured by an ultraviolet-visible spectrophotometer UV-1800 (available from SHIMADZU). The specific activity of the enzyme was calculated from the concentration of the enzyme used and enzyme dilution rate using the obtained absorbance change and the following equation. […] A turnover number (kcat) as a reaction rate parameter, a Michaelis constant (Km) value, and catalytic efficiency (kcat/Km) were determined with Igor Pro ver. 3.14 (available from WaveMetrics) based on Michaelis-Menten equation after the initial velocities were plotted against different substrates and coenzyme concentrations.

[2] = Optimum pH in catalytic reaction (deamination of meso-diaminopimelic acid); format: biochemical; settings: deamination of 10 mM meso-diaminopimelic acid, 1.25 mM NADP^+, 50° C.
Procedure: The optimum pH was evaluated for the D-type amino acid dehydrogenase obtained in Example 2. The activity of the enzyme was measured by determining an increase in absorbance at wavelength of 340 nm of NADPH produced by the catalytic reaction of the enzyme.
The absorbance was measured by an ultraviolet-visible spectrophotometer UV-1800 (available from SHIMADZU). The specific activity of the enzyme was calculated from the concentration of the enzyme used and enzyme dilution rate using the obtained absorbance change and the following equation.

[3] = pH stability of D-type amino acid dehydrogenase; format: physicochemical; settings: pH 5.5 to 9.5, 50° C., 30 minutes; relative to pH 5.5 as 100%
Procedure: The D-type amino acid dehydrogenase purified in Example 2 was subjected to a heat treatment at 50° C., in 100 mM of each buffer solution (pH 4.0, 4.5, 5.0, 5.5, 6.0, 6.5, 7.0, 7.5, 8.0, 8.5, 9.0, 9.5, 10.0, 10.5, 11.0, 11.3, 12.0, 12.3, or 13.0) for 30 minutes to confirm residual activity after being left to stand for 5 minutes on ice. […] The residual activity after treatment at other pH was calculated as a relative activity with treatment at pH 5.5 as 100%.

[4] = Thermal stability of D-type amino acid dehydrogenase; format: physicochemical; settings: 60° C., 30 minutes, 10 mM phosphate buffer pH 7.2; relative to treatment at 40° C. as 100%
Procedure: The D-type amino acid dehydrogenase purified in Example 2 was heat-treated in 10 mM phosphate buffer solution (pH 7.2) under various temperature conditions (40° C., 45° C., 50° C., 55° C., 60° C., 65° C., or 70° C.) for 30 minutes to confirm residual activity after being left to stand for 5 minutes on ice. […] The residual activity after treatment at other temperatures was calculated as a relative activity with treatment at 40° C. as 100%.

[5] = Coenzyme dependence by activity-staining; format: biochemical; settings: 10 mM meso-diaminopimelic acid, 1.25 mM coenzyme, pH 8.0, 50° C., 30 minutes
Procedure: The coenzyme dependence was evaluated for the D-type amino acid dehydrogenase obtained in Example 2 above. The coenzyme dependence of the enzyme was evaluated by an activity-staining method due to a catalytic reaction of the enzyme.
More specifically, an appropriate amount of enzyme solution was subjected to disc gel electrophoresis. […] The 2-(4-iodophenyl)-3-(4-nitrophenyl)-5-phenyl-2H-tetrazolium chloride in the reaction solution is reduced to form a […] formazan. A reaction formula is indicated below. In the following reaction formula, the D-type amino acid dehydrogenase is referred to as “meso-DAPDH”.

[6] = Optimum temperature in catalytic reaction; format: biochemical; settings: deamination of meso-diaminopimelic acid, NADP^+, 50-80° C. tested
Procedure: The measurement results are illustrated in FIG. 6. From the results, it was confirmed that the optimum temperature for activity was about 75° C.

[7] = Activity-staining with D-alanine or L-alanine; format: biochemical; settings: 10 mM D-alanine or L-alanine, 1.25 mM NADP^+, pH 8.0, 50° C., 30 minutes
Procedure: The activity was evaluated for the D-type amino acid dehydrogenase obtained in Example 2 above. The activity of the enzyme was evaluated by an activity-staining method due to a catalytic reaction of the enzyme. More specifically, an appropriate amount of enzyme solution was subjected to disc gel electrophoresis. […] 2-(4-iodophenyl)-3-(4-nitrophenyl)-5-phenyl-2H-tetrazolium chloride in the reaction solution is reduced to form a […] formazan. A reaction formula is indicated below. In the following reaction formula, the D-type amino acid dehydrogenase is referred to as “meso-DAPDH”.

coenzyme dependence (activity-staining) [5]	Molecule	kcat [1]	optimum pH for activity [2]	residual activity after pH treatment [3]	residual activity after heat treatment [4]	optimum temperature for activity [6]	D/L selectivity (activity-staining) [7]
–	NC(=O)c1ccc[n+]([C@@H]2O[C@H](COP(=O)([O-])OP(=O)(O)OC[C@H]3O[C@@H](n4cnc5c(N)ncnc54)[C@H](O)[C@@H]3O)[C@@H](O)[C@H]2O)c1 [NAD^1]	8930 s⁻¹	–	–	–	–	–
utilized both NAD^+ and NADP^+ coenzymes	B1	–	10.5	≥ 90%	about 76%	about 75 °C	selectively acts on the D-amino acid
